Like-named read-outs stand apart in the source and are kept apart here. No end group written: not given here.
What was measured:
Details in all cases: modification not given
[1] = biological target: T1, human GIP receptor (GIPR) (human), P48546; test: competition, 125I-GIP(1-42)
T1 chain: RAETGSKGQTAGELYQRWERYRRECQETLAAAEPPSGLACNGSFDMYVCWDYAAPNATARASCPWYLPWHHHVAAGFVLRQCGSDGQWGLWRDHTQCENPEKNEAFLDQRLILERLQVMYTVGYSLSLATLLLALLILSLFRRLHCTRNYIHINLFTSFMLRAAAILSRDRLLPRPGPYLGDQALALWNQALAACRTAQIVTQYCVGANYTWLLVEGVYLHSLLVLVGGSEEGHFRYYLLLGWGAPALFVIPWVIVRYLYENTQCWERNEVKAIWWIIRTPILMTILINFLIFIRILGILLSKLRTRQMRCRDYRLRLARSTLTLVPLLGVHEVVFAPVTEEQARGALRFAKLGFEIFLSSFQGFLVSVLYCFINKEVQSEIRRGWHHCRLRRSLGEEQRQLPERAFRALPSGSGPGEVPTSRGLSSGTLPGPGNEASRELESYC

[2] = biological target: T1, human GIP receptor (GIPR) (human), …; test: competition
[3] = biological target: T1, human GIP receptor (GIPR) (human), …
[4] = biological target: T1, human GIP receptor (GIPR) (human), …; test: other, Schild cAMP
[5] = biological target: T1, human GIP receptor (GIPR) (human), …; test: competition, 125I-hGIP
[6] = biological target: T1, human GIP receptor (GIPR) (human), …; test: competition
[7] = biological target: T1, human GIP receptor (GIPR) (human), …
[8] = biological target: T1, human GIP receptor (GIPR) (human), …; test: competition
[9] = biological target: T1, human GIP receptor (GIPR) (human), …; test: competition, 125I-GIP(2-30)NH2
[10] = biological target: T1, human GIP receptor (GIPR) (human), …; test: competition, 125I-GIP(1-30)NH2
[11] = biological target: T1, human GIP receptor (GIPR) (human), …; test: competition, 125I-GIP(3-30)NH2

B1: GIP(9-30)NH2 (peptide)
chain: DYSIAMDKIHQQDFVNWLLAQK
modifications: not fully specified (C-terminus)
B1 showed a Ki [1] of 307 nM.

B2: hGIP(3-30) (peptide)
chain: EGTFISDYSIAMDKIHQQDFVNWLLAQK
In the case of B2, the IC50 [2] is reported as 16 nM and the Ki [3] is reported as 15 nM.

B3: hGIP(3-30)D15E H18A (peptide)
chain: EGTFISDYSIAMEKIAQQDFVNWLLAQK
With B3 the Ki [4] was 7.9 nM.

B4: hGIP(3-30)H18K (peptide)
chain: EGTFISDYSIAMDKIKQQDFVNWLLAQK
B4 was tested, and the Ki [4] was 37 nM and the IC50 [5] was 7.8 nM.

B5: GIP(3-30)NH2 (peptide)
chain: EGTFISDYSIAMDKIHQQDFVNWLLAQK
Binder B5 has an IC50 [2] of 3.4 nM, a Ki [2] of 2.3 nM and an IC50 [6] of 0.76 nM. It also gave a Ki [7] of 14.9 nM and an IC50 [8] of 4.4 nM.

B6: GIP(4-30)NH2 (peptide)
chain: GTFISDYSIAMDKIHQQDFVNWLLAQK
modifications: not fully specified (C-terminus)
Binder B6 has a Ki [1] of 21.5 nM.

B7: GIP(8-30)NH2 (peptide)
chain: SDYSIAMDKIHQQDFVNWLLAQK
modifications: not fully specified (C-terminus)
With B7 the Ki [1] was 79 nM.

B8: hGIP(3-30)H18A (peptide)
chain: EGTFISDYSIAMDKIAQQDFVNWLLAQK
With B8 the Ki [4] was 35 nM.

B9: GIP(6-30)NH2 (peptide)
chain: FISDYSIAMDKIHQQDFVNWLLAQK
modifications: not fully specified (C-terminus)
B9 gave an IC50 [9] of 340 nM, an IC50 [10] of 1060 nM and an IC50 [11] of 370 nM. For the same binder, the Ki [1] was 347 nM.

B10: GIP(5-30)NH2 (peptide)
chain: TFISDYSIAMDKIHQQDFVNWLLAQK
modifications: not fully specified (C-terminus)
Binder B10 has a Ki [4] of 15.2 nM and a Ki [1] of 5.9 nM.

B11: GIP(2-30)NH2 (peptide)
chain: AEGTFISDYSIAMDKIHQQDFVNWLLAQK
modifications: not fully specified (C-terminus)
B11 was tested, and the IC50 [9] was 2.7 nM, the IC50 [10] was 26 nM and the IC50 [11] was 7.7 nM. The Ki [1] was 14.3 nM.

B12: hGIP(3-30)K16A H18A (peptide)
chain: EGTFISDYSIAMDAIAQQDFVNWLLAQK
In the case of B12, the Ki [4] is reported as 15 nM.
